Measured values from patent publication US20250026813A1 (published 2025).

Target: SARS-CoV-2 spike protein bearing furin mutation and truncation in retention sequence (on pseudoviral envelope) (SARS-CoV-2, UniProt P0DTC2 14-1273)
Assay: cell-based or functional assay

B1: YANG-2101 (antibody, V domains shown)
VH: EVQLVESGGGLVQPGGSLRLSCAASGFTFSLYDMHWVRQATGKGLEWVAGVGIAGDTIYPDSVKGRFTISRENAKNSFFLQMNRLRAGDTAVYYCVRGGTGTTFFDYWGQGVLVTVSS
VL: DIQMTQSPSSLSASVGDRVTVTCRASQDITNYLAWFQQKPGKAPKSLIYSASSLQGGTPSKFSGSGSGTEFTLTISSLQPEDFATYYCQQYNSFPLTFGGGTKVEIK
- PV neutralization % (Ab 1 ug/mL): 100%

B2: YANG-1303 (antibody, V domains shown)
VH: QVQLVQSGTEMKEPGASVKVSCKASGYTFTNYGITWVRQAPGQGLEWMGWLNTNNGDTNYAQKLQGRVTMTTDTSTSTAYMELRSLRSDDTAVYYCARDSVTTYDYWGQGTLVTVSS
VL: SYELTQPPSVSVSPGQTARITCSGDALPKKYAYWFQQKSAQAPVLVIYEDSKRPSGIPERFSGSSSGTMATLTINGAQVEDEAAYYCYSLDSSGNHWVFGGGTKLTVL
- PV neutralization % (Ab 1 ug/mL): 46.3%

B3: YANG-1304 (antibody, V domains shown)
VH: QVQLQQWGAGLVKTSETLSLTCAVYGGSFNDHYWSWIRQPPGKGLEWIGEINHSGSTNYNPSLKSRVTMSLDTSKNQFSLKLRSLTAADTAMYYCAIEGIWGQGAMVTVSS
VL: SYELTQPPSVSVSPGQTARITCSGDALPIKYVHWYQQKSGQAPVLVIYEDSKRPSGIPERISGSSSGTMATLTMSGAQVEDEADYYCYSTDSSGNHWVFGGGTKLTVL
- PV neutralization % (Ab 1 ug/mL): 41.5%

B4: YANG-1305 (antibody, V domains shown)
VH: QVQLVESGGGVVQPGKSLRLSCAASGFAFSSFGMHWVRQAPGTGLEWLAIISFEGTKKYYADSMKGRITISRDNSKNTLYLQMNSLRAEDTAVYYCAADYGDYDDYYYGVHVWGQGTTVTVSS
VL: DIQMTQSPSSLSASVGDRVTITCRASQGIANYLAWYQQKPGKVPKLLIYATSTLQSGVPSRFSGSGSGTDFTLTISSLQPEDVAIYYCQKYDSAPFTFGPGTKVDFK
- PV neutralisation IC50: 420 pM
- PV neutralization % (Ab 1 ug/mL): 60.5%

B5: YANG-2103 (antibody, V domains shown)
VH: EAQLVESGGGLIQSGGSLRLSCIASGLTVNSNYMNWVRQAPGKGLEWVSVIYSGGTTFYADSVKGRFTISRDNSKNTLYLQMTSLRAEDTAVYYCAREGYGMDVWGQGTTVTVSS
VL: SYVLTQPPSVSVAPGKTARINCGGNNFGSKSVHWYQQKPGQAPVLVIYYDSDRPSGIPERFSGSNSGNTATLTISRVEAGDEADYYCQVWDNSSDHFVFGAGTKVTVL
- PV neutralization % (Ab 1 ug/mL): 97.7%

B6: YANG-1401 (antibody, V domains shown)
VH: QVHLQESGPGLVKPSGTLSLTCAVSGGSFSQINWWSWVRQSPGKGLEWIGEIYHSGSTNYNPSLKSRVTMSVDKSKNQFSLALNSVTAADTAVYYCARGYYGDNWFDSWGQGTLVTVSS
VL: DIQMTQSPSSLSASIGDRVTITCRASQGISNWLVWYQQKPEKAPKSLIYAASSLQSGVPSRFSGSGSGTDFTLTISSLHPEDFATYYCQQYSDYPLTFGGGTKVEIK
- PV neutralisation IC50: 530 pM
- PV neutralization % (Ab 1 ug/mL): 91.6%

B7: YANG-2105 (antibody, V domains shown)
VH: EVQLVESGGGLIQPGGSLRLSCAASGLTVSSNYMNWVRQAPGKGLEWVSVIYSGGSTFYTDSVKGRFTISRDNSKNTLNLQMNSLRAEDTAVYYCARDLGIRGGMDVWGQGTTVTVSS
VL: DIQLIQSPSFLSASVGDRVTITCWASQGISSYLAWYQQKPGKAPNLLIYAASTLQSGVPSRFSGSGSGTEFTLTISSLQPEDFATYYCQQLDGSLTFGGGTKVEIK
- PV neutralization % (Ab 1 ug/mL): 99.6%

B8: YANG-2102 (antibody, V domains shown)
VH: EVKLVESGGGLVQRGGSLRLSCAASGFTFSSHAMYWVRQIPGKGLEWVAGIGVAGDTFYPDSVKGRFTISRENANNSLSLQMDSLRTGDTAIYYCVRDGYSGSYPYHYYGMDVWGQGITVVVSS
VL: DIQLTQSPSSLSASVGDSVTITCRASQGIDTYLAWFQQKPGKAPKSLIYVASSLQSGVPSKFSGSGSGTDFTLTISSLLPEDFATYYCQQYKSYPWTFGQGTKVEIK
- PV neutralization % (Ab 1 ug/mL): 99.4%

B9: YANG-2104 (antibody, V domains shown)
VH: EVKLVESGGGLVQPGGSLRLSCAASGFTFSSHAMYWVRQSPGKGLEWVSGIGVAGDTFYVDSVKGRFTISRENARNSLSLQMNSLRAGDTAVYYCARDGYSGTHPYHFYGMDVWGQGITVVVSS
VL: DIQMTQSPSSLSASVGDSVTITCRASQDINTYLAWFQQKPGKAPKSLIYVASSLQSGVPSKFSGSGSGTDFTLTISSLLPEDFATYYCQQYKSYPWTFGQGTKVEIK
- PV neutralization % (Ab 1 ug/mL): 99.3%

B10: YANG-1302 (antibody, V domains shown)
VH: QVQLVESGGGAVQPGRSLRLSCRASGFTFSSFGMNWVRQVPGKGLVWVAGIWYDGRNKYYADSVKGRFTISRENSKNMLYLQMNSLRAEDTAVYYCARDQDSGFDGNWFGPWGQGTMVTVSS
VL: SYELTQPPSMSVSPGQTASITCSGDNLGDKYVCWYQQRPGQSPVMVIFQDSTRPSGIPERFSGSNSGNTATLTISGTQAMDEADYYCQAWDSNTAVFGGGTKLTVL
- PV neutralisation IC50: 230 pM
- PV neutralization % (Ab 1 ug/mL): 60.3%

B11: YANG-1301 (antibody, V domains shown)
VH: QVQLVESGGGVVQPGRSLRLSCAASGFTFSSYGMHWVRQAPGKGLEWVAVIWYDGSNKFYADSVKGRFTISRDNSKNTLYLQMNSLKAEDTAVYYCARDTWIGESDTSWLDPWGQGTLVTVSS
VL: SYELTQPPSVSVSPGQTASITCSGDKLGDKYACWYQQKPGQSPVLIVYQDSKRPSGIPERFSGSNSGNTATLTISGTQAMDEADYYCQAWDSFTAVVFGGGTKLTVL
- PV neutralisation IC50: 520 pM
- PV neutralization % (Ab 1 ug/mL): 60.4%

B12: YANG-1403 (antibody, V domains shown)
VH: QVQLVESGGGVVQPGRSLRLSCAASGFTFSNYGMHWVRQAPGKGLEWVAVIWYDGSNKYYADSVKGRFTISRDNSKNTLYLQMNSLRAEDTAVYFCVRETVTDGMDVWGQGTTVTVSL
VL: NIQMTQSPSAMSASVGDRVTITCRARQDISNYLAWFQQKPGKVPKHLIYAASSLLSGVPSRFSGSGSGTEFTLTISSLQPEDFATYYCLHHNGYPWTFGQGTKVEIK
- PV neutralization % (Ab 1 ug/mL): 99.3%

B13: YANG-2106 (antibody, V domains shown)
VH: QVQVVESGGGVVQPGRSLRLSCSASGFTFSTYGMHWVRQAPGKGLEWVAVIWYDGSNKYYADSVKGRFIISRDNSKNTLYLQMSSLRPDDTAVYYCVREGVADGMGVWGQGTTVTVSS
VL: NIQMTQSPSAMSASVGDRVTITCRARQDISTYLAWFQQKPGKVPKHLIYAASTLLSGVPSRFGGSGSGTEFTLTITSLQPEDFATYYCLHHNNYPWTFGQGTKVEIK
- PV neutralization % (Ab 1 ug/mL): 93.3%

B14: YANG-2107 (antibody, V domains shown)
VH: QVQLQESGPGLVKPSGTLSLTCAVSGGSIRSSNWWIWVRQSPGKGLEWIGEIYHGGNTNYNPSLKSRVTLSVDKSKNQFSLKLSSVTAADTAVYYCARALYDIGGVFDIWGQGTMVTVSS
VL: QSALTQPASVSGSPGQSISISCTGTSSDIGGYNYVSWYQQHPGKAPKLMIYDVSERPSGVSNRFSGSKSGNTASLTISGLQAEDEGDYYCCSYAANSNVVFGGGTKLSVL
- PV neutralisation IC50: 300 pM
- PV neutralization % (Ab 1 ug/mL): 61.2%

B15: YANG-1402 (antibody, V domains shown)
VH: EVQLVESGGGLIQPGGSLRLSCAASGVTVSSNYMNWVRQAPGKGLEWVSVIYSGGSTYYADSVKGRFTISRDNSKNTLYLQMNSLRVEDTAVYYCARDIGDYGMDVWGQGTTVTVSS
VL: DIQLTQAPSFLSASVGDRLTITCWASQGISSYLAWYQQKPGKAPKILIYAASTLQSGVPSRFSGSGSGTEFTLTISSLQPEDFATYYCQQLNSYPLIFGGGTKVEIK
- PV neutralization % (Ab 1 ug/mL): 94.5%
